Legend:
[1] = target: T1, recombinant soluble MD-2 purified from baculovirus-infected insect cell supernatants (UniProt Q9Y6Y9 19-160); assay: direct ELISA, MD-2 coated at 5 ug/ml
T1 construct: Expressed in Sf9 cells, purified on NiNTA, coated at 5 ug/ml in the direct ELISA; not shown: C-terminal FLAG and 6xHIS tags
T1 sequence (looked up): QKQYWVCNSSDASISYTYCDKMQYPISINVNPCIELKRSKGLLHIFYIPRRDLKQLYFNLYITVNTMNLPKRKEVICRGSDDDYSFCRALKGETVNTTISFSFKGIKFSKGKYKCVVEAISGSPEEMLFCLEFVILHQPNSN
Procedure: Recombinant soluble MD-2 with C terminal FLAG and histidine epitope tags was coated at a concentration of 5 μg/ml in 50 μl PBS on ELISA plates (Nunc Maxisorp). Wells were blocked with 200 μl PBS 2% BSA and subsequently incubated with the appropriate MAb at the indicated concentration in PBS 1% BSA. Following 3 wash steps with PBS 0.05% Tween 20, 50 μl HRP conjugated goat anti-mouse IgG (H+L) at a 1:5000 dilution was added to the wells. […] Plates were read at a wavelength of 650 nm.
Using direct ELISA, no binding of 18H10 to recombinant soluble MD-2 generated with the baculovirus expression system was detected (FIG. 5a).

[2] = target: T2, human TLR4 and human MD-2 on transiently transfected HEK 293 cells (human, UniProt O00206 24-839; Q9Y6Y9 19-160); assay: FACS on transiently transfected HEK 293 cells
T2 construct: whole, on cells; also called human TLR4/MD-2 complex
Procedure: FIGS. 4A-4L are a series of graphs depicting the specificity of the 18H10 monoclonal antibody for MD-2. The specificity of the 18H10 antibody is shown by flow cytometry analysis of HEK 293 cells transiently transfected with either human TLR4 and human MD-2 (FIG. 4A, FIG. 4E and FIG. 4I); rabbit TLR4 and rabbit MD-2 (FIG. 4B, FIG. 4F and FIG. 4J); human TLR4 and rabbit MD-2 (FIG. 4C, FIG. 4G and FIG. 4K); or rabbit TLR4 and human MD-2 (FIG. 4D, FIG. 4H and FIG. 4L). Cells were incubated with either α-FLAG™ antibody (to detect TLR4 expression); α-C-myc antibody (to detect MD-2 expression) or the 18H10 monoclonal antibody, followed by an APC-coupled α-mouse (H+L) antibody.
FIGS. 12A-12L is a series of graphs depicting the specificity of the 16G7 monoclonal antibody for TLR4. […]
HEK 293 cells were plated in 6 well plates at a density of 2.5×10⁵ cells/well in 2 ml culture medium containing 10% FBS. […] 48 hours post-transfection, cells were stained with the appropriate monoclonal antibody (as indicated in FIGS. 4A-4L) and an APC-coupled goat anti-mouse IgG (H+L) antibody (Molecular Probes) and analyzed using the FACScalibur in the FL-4 channel.

[3] = target: T3, human TLR4 alone in transfected HEK 293 cells (human, UniProt O00206 24-839); assay: sandwich ELISA, capture on anti-FLAG M2, biotinylated 18H10
T3 construct: whole, on cells; also called TLR4 alone in transfected cell lysates
Procedure: (§1) For sample preparation, HEK 293 cells were transfected with the appropriate plasmid constructs using the Fugene 6™ transfection reagent as described in paragraph G above. 48 hours post-transfection, cells were collected and cleared by centrifugation. Cells were subsequently incubated with biotinylated 18H10 (10 μg/ml) and lysed in 20 mM Tris pH 7.4, 150 mM NaCl, 1% NP40 containing COMPLETE™ protease inhibitors (Roche).
(§2) To perform the sandwich ELISA, Nunc maxisorp plate wells were coated with 50 μl of the anti-FLAG™ M2 MAb (Sigma) at a concentration of 5 μg/ml in PBS. Wells were blocked with 200 μl PBS 2% BSA and subsequently incubated with 50 μl of the appropriate samples at the indicated dilution. Wells were washed three times with 200 μl PBS 0.05% Tween 20 and incubated with 50 μl of the appropriate antibody (10 μg/ml for biotinylated 18H10 and 12D4, 1 μg/ml for the polyclonal anti-MD-2 […]). Following a wash step as above, wells were incubated with 50 μl of the appropriate detection antibody (HRP conjugated streptavidin at a dilution of 1:1500 for the biotinylated MAbs and HRP conjugated anti-rabbit IgG (H+L) at a dilution of 1:5000 for the polyclonal rabbit Ab). […] Plates were read at a wavelength of 650 nm.

[4] = target: T4, MD-2 alone in transfected HEK 293 cell lysates/supernatants (UniProt Q9Y6Y9 19-160, limits assumed); assay: as above
T4 construct: not shown: C-terminal FLAG and 6x Histidine tags
T4 sequence (looked up): T1 sequence (looked up)
Procedure: as §1, §2

[5] = target: T5, human TLR4/MD-2 complex on the surface of transfected CHO cells (human, UniProt O00206 24-839; Q9Y6Y9 19-160); assay: flow cytometry, mock transfected vs. TLR4/MD-2 transfected cells
T5 construct: whole, on cells; also called TLR4/MD-2 transfected CHO cells; hTLR4/MD-2 transfected CHO cells

[6] = target: T6, human TLR4/MD-2 complex in transfected HEK 293 cells (FLAG-TLR4 with MD-2-FLAG-6xHis) (human, UniProt O00206 24-839; Q9Y6Y9 19-160); assay: sandwich ELISA, capture on anti-FLAG M2, biotinylated 18H10 with streptavidin-HRP
T6 construct: whole, on cells; also called TLR4/MD-2 transfected HEK 293 cells; hTLR4/MD-2 transfected HEK 293 cells
Procedure: as §1, §2

T5 sequence (O00206 24-839, one chain of several): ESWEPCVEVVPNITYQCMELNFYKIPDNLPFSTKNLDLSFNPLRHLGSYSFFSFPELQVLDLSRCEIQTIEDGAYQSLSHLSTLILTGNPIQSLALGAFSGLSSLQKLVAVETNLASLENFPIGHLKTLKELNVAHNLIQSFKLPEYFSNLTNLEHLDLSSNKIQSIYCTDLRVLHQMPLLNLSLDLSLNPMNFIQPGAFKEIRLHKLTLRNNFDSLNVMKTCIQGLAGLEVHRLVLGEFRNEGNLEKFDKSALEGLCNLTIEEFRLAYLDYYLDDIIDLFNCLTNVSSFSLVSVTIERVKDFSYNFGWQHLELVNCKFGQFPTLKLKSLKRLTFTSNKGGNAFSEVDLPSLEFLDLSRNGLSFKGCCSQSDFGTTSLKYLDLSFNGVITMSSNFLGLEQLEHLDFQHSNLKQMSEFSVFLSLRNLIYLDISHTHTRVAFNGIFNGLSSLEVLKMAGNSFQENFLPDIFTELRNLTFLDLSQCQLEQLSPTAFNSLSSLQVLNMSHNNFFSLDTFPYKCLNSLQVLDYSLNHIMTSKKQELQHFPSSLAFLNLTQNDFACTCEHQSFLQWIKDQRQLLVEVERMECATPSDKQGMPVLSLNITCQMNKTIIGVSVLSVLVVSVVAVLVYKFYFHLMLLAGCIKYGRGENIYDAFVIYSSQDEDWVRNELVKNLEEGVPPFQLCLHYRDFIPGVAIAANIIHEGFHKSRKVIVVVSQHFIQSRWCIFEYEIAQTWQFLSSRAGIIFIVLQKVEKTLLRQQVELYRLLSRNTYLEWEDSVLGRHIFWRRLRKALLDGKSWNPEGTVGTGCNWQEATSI
T2 sequence (O00206 24-839, one chain of several): as above
T3 sequence (O00206 24-839): as the sequence (O00206 24-839, one chain of several) above
T6 sequence (O00206 24-839, one chain of several): as above

binding result [1]: no binding
binding result [2]: binds
binding result [5]: binds
binding result [6]: binds
B1: 18H10 monoclonal antibody (antibody, IgG2b, V domains shown)
VH: QVQLQQSGADLVRPGALVKLSCTASGFNIKDSYIHWVKKRPEWGLEWIGWTDPENVNSIYDPRFQGKASITADTSSNTAFLQLTSLTSEDTAVYYCARGYNGVYYAMDYWGQGTTVTVSS
VL: QIVLTQSPSIMSASLGEEITLTCSASSSVIYMHWYQQKSGTSPKLLIYRTYNLASGVPSRFSGSGSGTFYSLTISSVEAEDAADYYCHQWSSFPYTFGGGTKLEIKR
notes: also called 18H10 MAb; 18H10 mouse MAb
binding result [3]: no binding (tested: 10 µg/ml biotinylated 18H10)
binding result [4]: no binding (tested: 10 µg/ml biotinylated 18H10)

Source: US20180282426A1 (NOVIMMUNE S A, published 2018)
